The values that follow are results of earlier work, collected in article PMC10935306.

A word on the Kd: it is the free concentration of one partner at which half of the binding sites on the other are occupied at equilibrium, for simple one-to-one binding.

This data set has as its target Ship2 Sam (Homo sapiens) (UniProt O15357).
Sequence of UniProt O15357 (O15357 1193-1258): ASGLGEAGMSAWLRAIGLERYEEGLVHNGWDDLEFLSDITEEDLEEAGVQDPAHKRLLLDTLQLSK

Consider EphA2 Sam (from UniProt P29317), for which the Kd was 750 nM.
